# T1: Placenta Growth Factor (PlGF), human (human, UniProt P49763 21-149)
# T1 chain: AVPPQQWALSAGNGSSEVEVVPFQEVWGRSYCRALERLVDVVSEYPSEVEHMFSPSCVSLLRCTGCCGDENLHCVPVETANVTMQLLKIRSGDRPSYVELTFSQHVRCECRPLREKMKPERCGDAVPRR
# B1: HC 2/SLC 8 (antibody)
# chain 1: GQGTLVTVSSASQPVLHQPPAMSSALGTTIRLTCTLRNDHDIGVYSVYWYQQRPGHPPRFLLRYFSQSDKSQGPQVPPRFSGSKDVARNRGYLSISELQPEDEAMYYCAMGARSRCWPRGFQSKHNSVTHVFGSGTQLTVLSQPKATPSVTLFPPSSEELQANKATLVCLMNDFYPGILTVTWKADGTPITQGVEMTTPSKQSNNKYAASSYLSLTPEQWRSRRSYSCQVMHEGSTVEKTVAPAECS
# chain 2: MSWAPVLLMLFVYCTGCGPQPVLHQPPAMSSALGTTIRLTCTLRNDHDIGVYSVYWYQQRPGHPPRFLLRYFSQSDKSQGPQVPPRFSGSKDVARNRGYLSISVTHVFGSGTQLTVLSQPKATPSQVQLVQ
# B2: HC 10/SLC 8 (antibody)
# chain 1: GQGTLVTVSSASTKGPSVFPQPVLHQPPAMSSALGTTIRLTCTLRNDHDIGVYSVYWYQQRPGHPPRFLLRYFSQSDKSQGPQVPPRFSGSKDVARNRGYLSISELQPEDEAMYYCAMGARSRCWPRGFQSKHNSVTHVFGSGTQLTVLSQPKATPSVTLFPPSSEELQANKATLVCLMNDFYPGILTVTWKADGTPITQGVEMTTPSKQSNNKYAASSYLSLTPEQWRSRRSYSCQVMHEGSTVEKTVAPAECS
# chain 2: B1 chain 2
# B3: HC 6/SLC 8 (antibody)
# chain 1: GQGTLVTVSSASTKGPQPVLHQPPAMSSALGTTIRLTCTLRNDHDIGVYSVYWYQQRPGHPPRFLLRYFSQSDKSQGPQVPPRFSGSKDVARNRGYLSISELQPEDEAMYYCAMGARSRCWPRGFQSKHNSVTHVFGSGTQLTVLSQPKATPSVTLFPPSSEELQANKATLVCLMNDFYPGILTVTWKADGTPITQGVEMTTPSKQSNNKYAASSYLSLTPEQWRSRRSYSCQVMHEGSTVEKTVAPAECS
# chain 2: B1 chain 2
# B4: HC 5/SLC 7 (antibody)
# chain 1: GQGTLVTVSSASTKGQPVLHQPPAMSSALGTTIRLTCTLRNDHDIGVYSVYWYQQRPGHPPRFLLRYFSQSDKSQGPQVPPRFSGSKDVARNRGYLSISELQPEDEAMYYCAMGARSRCWPRGFQSKHNSVTHVFGSGTQLTVLSQPKATPSVTLFPPSSEELQANKATLVCLMNDFYPGILTVTWKADGTPITQGVEMTTPSKQSNNKYAASSYLSLTPEQWRSRRSYSCQVMHEGSTVEKTVAPAECS
# chain 2: MSWAPVLLMLFVYCTGCGPQPVLHQPPAMSSALGTTIRLTCTLRNDHDIGVYSVYWYQQRPGHPPRFLLRYFSQSDKSQGPQVPPRFSGSKDVARNRGYLSISVTHVFGSGTQLTVLSQPKATPQVQLVQ
# B5: HC 5/SLC 15 (antibody)
# chain 1: B4 chain 1
# chain 2: MSWAPVLLMLFVYCTGCGPQPVLHQPPAMSSALGTTIRLTCTLRNDHDIGVYSVYWYQQRPGHPPRFLLRYFSQSDKSQGPQVPPRFSGSKDVARNRGYLSISVTHVFGSGTQLTVLSQPKATPSVTGGGGSQVQLVQ
# B6: HC 3/SLC 7 (antibody)
# chain 1: GQGTLVTVSSASTQPVLHQPPAMSSALGTTIRLTCTLRNDHDIGVYSVYWYQQRPGHPPRFLLRYFSQSDKSQGPQVPPRFSGSKDVARNRGYLSISELQPEDEAMYYCAMGARSRCWPRGFQSKHNSVTHVFGSGTQLTVLSQPKATPSVTLFPPSSEELQANKATLVCLMNDFYPGILTVTWKADGTPITQGVEMTTPSKQSNNKYAASSYLSLTPEQWRSRRSYSCQVMHEGSTVEKTVAPAECS
# chain 2: B4 chain 2
# B7: HC 7/SLC 9 (antibody)
# chain 1: GQGTLVTVSSASTKGPSQPVLHQPPAMSSALGTTIRLTCTLRNDHDIGVYSVYWYQQRPGHPPRFLLRYFSQSDKSQGPQVPPRFSGSKDVARNRGYLSISELQPEDEAMYYCAMGARSRCWPRGFQSKHNSVTHVFGSGTQLTVLSQPKATPSVTLFPPSSEELQANKATLVCLMNDFYPGILTVTWKADGTPITQGVEMTTPSKQSNNKYAASSYLSLTPEQWRSRRSYSCQVMHEGSTVEKTVAPAECS
# chain 2: MSWAPVLLMLFVYCTGCGPQPVLHQPPAMSSALGTTIRLTCTLRNDHDIGVYSVYWYQQRPGHPPRFLLRYFSQSDKSQGPQVPPRFSGSKDVARNRGYLSISVTHVFGSGTQLTVLSQPKATPSVQVQLVQ
# B8: HC 9/SLC 9 (antibody)
# chain 1: GQGTLVTVSSASTKGPSVFQPVLHQPPAMSSALGTTIRLTCTLRNDHDIGVYSVYWYQQRPGHPPRFLLRYFSQSDKSQGPQVPPRFSGSKDVARNRGYLSISELQPEDEAMYYCAMGARSRCWPRGFQSKHNSVTHVFGSGTQLTVLSQPKATPSVTLFPPSSEELQANKATLVCLMNDFYPGILTVTWKADGTPITQGVEMTTPSKQSNNKYAASSYLSLTPEQWRSRRSYSCQVMHEGSTVEKTVAPAECS
# chain 2: B7 chain 2
# B9: HC 2/SLC 9 (antibody)
# chain 1: B1 chain 1
# chain 2: B7 chain 2
# B10: HC 7/SLC 4 (antibody)
# chain 1: B7 chain 1
# chain 2: MSWAPVLLMLFVYCTGCGPQPVLHQPPAMSSALGTTIRLTCTLRNDHDIGVYSVYWYQQRPGHPPRFLLRYFSQSDKSQGPQVPPRFSGSKDVARNRGYLSISVTHVFGSGTQLTVLSQPKQVQLVQ
# B11: HC 7/SLC 5 (antibody)
# chain 1: B7 chain 1
# chain 2: MSWAPVLLMLFVYCTGCGPQPVLHQPPAMSSALGTTIRLTCTLRNDHDIGVYSVYWYQQRPGHPPRFLLRYFSQSDKSQGPQVPPRFSGSKDVARNRGYLSISVTHVFGSGTQLTVLSQPKAQVQLVQ
# Target: T1, Placenta Growth Factor (PlGF), human
# Test: ELISA
row,EC50,Binder
1,0.119 nM,B1
2,0.046 nM,B2
3,0.073 nM,B3
4,0.129 nM,B4
5,0.049 nM,B5
6,0.159 nM,B6
7,0.057 nM,B7
8,0.046 nM,B8
9,0.195 nM,B9
10,0.204 nM,B10
11,0.283 nM,B11

# Target: Hepatocyte Growth Factor (HGF), human (human, UniProt P14210 32-728)
# Sequence (P14210 32-728): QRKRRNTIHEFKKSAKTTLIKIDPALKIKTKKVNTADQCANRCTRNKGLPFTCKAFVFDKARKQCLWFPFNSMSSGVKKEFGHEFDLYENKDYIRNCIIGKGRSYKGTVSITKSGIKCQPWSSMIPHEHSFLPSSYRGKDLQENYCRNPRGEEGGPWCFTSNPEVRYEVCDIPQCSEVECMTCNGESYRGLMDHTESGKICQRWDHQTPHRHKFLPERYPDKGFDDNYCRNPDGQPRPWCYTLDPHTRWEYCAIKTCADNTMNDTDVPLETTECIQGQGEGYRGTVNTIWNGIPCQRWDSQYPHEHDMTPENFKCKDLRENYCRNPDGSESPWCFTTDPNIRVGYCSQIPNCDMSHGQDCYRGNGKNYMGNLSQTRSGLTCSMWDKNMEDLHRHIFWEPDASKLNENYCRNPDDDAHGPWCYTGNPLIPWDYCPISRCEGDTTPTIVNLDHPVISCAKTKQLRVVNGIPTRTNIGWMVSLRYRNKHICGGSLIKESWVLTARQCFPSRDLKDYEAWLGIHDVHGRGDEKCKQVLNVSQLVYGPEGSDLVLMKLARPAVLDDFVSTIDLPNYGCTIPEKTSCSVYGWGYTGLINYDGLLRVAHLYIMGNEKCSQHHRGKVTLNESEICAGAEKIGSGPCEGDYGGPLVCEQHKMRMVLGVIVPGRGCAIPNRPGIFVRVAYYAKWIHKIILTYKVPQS
# Test: ELISA
row,EC50,Binder
1,0.046 nM,B1
2,0.048 nM,B2
3,0.059 nM,B3
4,0.056 nM,B4
5,~0.041 nM,B5
6,0.054 nM,B6
7,0.048 nM,B7
8,0.058 nM,B8
9,0.063 nM,B9
10,0.065 nM,B10
11,0.056 nM,B11

# Reference: US20150045540A1 (published 2015)
